The target in assay [1] is recombinant SUMO2 (UniProt P61956 1-95). Description: ITC. On the technique in general: In ITC the heat of successive injections is recorded.
Assay [2] addresses recombinant SUMO1 (UniProt P63165 1-97). Description: ITC.

Chain of recombinant SUMO1 (P63165 1-97): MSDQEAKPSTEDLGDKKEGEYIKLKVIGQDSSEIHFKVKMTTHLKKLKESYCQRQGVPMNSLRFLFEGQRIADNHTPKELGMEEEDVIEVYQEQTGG
Chain of recombinant SUMO2 (P61956 whole entry): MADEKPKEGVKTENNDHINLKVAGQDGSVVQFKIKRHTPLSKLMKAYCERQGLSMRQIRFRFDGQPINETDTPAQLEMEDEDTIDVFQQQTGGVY

B1: recombinant HERC2 ZZ domain (amino acids 2702–2755), WT (domain or fragment)
chain: IHPGVTCDGCQMFPINGSRFKCRNCDDFDFCETCFKTKKHNTRHTFGRINEPGQ
What is called Kd is the concentration at which binding is half-saturated. Take B1: the Kd in assay [1] was about 60 µM; in assay [2], about 3 µM.
